Legend:
[1] = biological target: T1, Rpn10/S5a (UIM motifs: 196-306aa) (UniProt P55036 196-306); experiment: ITC
T1 sequence (looked up): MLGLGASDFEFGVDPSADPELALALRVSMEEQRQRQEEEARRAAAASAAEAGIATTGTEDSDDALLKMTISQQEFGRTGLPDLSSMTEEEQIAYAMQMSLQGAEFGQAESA

[2] = biological target: hRpn13 (Pru domain: 1-150aa) (human, UniProt Q16186 1-150); experiment: other fluorescence titration
[3] = biological target: T1, Rpn10/S5a (UIM motifs: 196-306aa); experiment: NMR titration
[4] = biological target: T1, Rpn10/S5a (UIM motifs: 196-306aa); experiment: NMR titration; remark: listed apart in the source

Sequence of hRpn13 (Pru domain: 1-150aa) (Q16186 1-150): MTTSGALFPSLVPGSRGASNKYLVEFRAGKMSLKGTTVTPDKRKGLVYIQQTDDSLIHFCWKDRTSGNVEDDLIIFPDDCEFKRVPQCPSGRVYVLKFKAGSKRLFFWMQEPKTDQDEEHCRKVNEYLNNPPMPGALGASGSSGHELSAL

B1: viral Ubiquitin from Autographa Californica Multiple Nucleo-Polyhedrosis Virus (AcMNPV) (natural protein)
chain: not shown
- Kd [1]: 85 µM
- dH [1]: -4.5 ± 0.3 kcal/mol
- stoichiometry N [1]: 2 ± 0.1
- Kd [2]: 0.04 µM
- KD of the UIM1 site [3]: 331 µM
- KD of the UIM2 site [3]: 21 µM
- Kd [4]: 78 µM

— article doi:10.1101/756791 (bioRxiv, 2019)
